# Laboratory results taken from article PMC4488392 (2015).
# Biological target: HD5
# Experiment: SPR
binder,measurement,value
"HLA-B27 heavy chain homodimer (B27_(2)), recombinant HLA-B*2705 homodimer complex (complex, biotinylated (site not stated)) chain 1: GSHSMRYFHTSVSRPGRGEPRFITVGYVDDTLFVRFDSDAASPREEPRAPWIEQEGPEYWDRETQICKAKAQTDREDLRTLLRYYNQSEAGSHTLQNMYGCDVGPDGRLLRGYHQDAYDGKDYIALNEDLSSWTAADTAAQITQRKWEAARVAEQLRAYLEGECVEWLRRYLENGKETLQRADPPKTHVTHHPISDHEATLRCWALGFYPAEITLTWQRDGEDQTQDTELVETRPAGDRTFQKWAAVVVPSGEEQRYTCHVQHEGLPKPLTLRWEPSSQSTVPIV chain 2: SRYWAIRTR",Kd,0.32 nM
